Where “and” joins values, the source holds several entries; their conditions need not be identical. Equal values may be shown once.

The first series is described as follows: Determination of S from retention time shift Δ relative to P3 at two gradient slopes, nano-RP-HPLC MS of spiked tryptic digest. It is filed as physicochemical. To be noted: experimental S value, LC-MS runs of model peptide mixture. The method, then:
Proteins and protein digestion. Tryptic digests of two different protein mixtures were utilized. The “test peptide mixture” contained human proteins: albumin, transferrin, fibrinogen. The “model peptide mixture” contained bovine proteins: albumin, transferrin, fibrinogen, catalase. Equimolar mixtures of the proteins were prepared, reduced with DTT, alkylated with iodoacetamide and digested with sequencing-grade modified trypsin (Promega, Madison, Wis.). Prior to nano-LC MS/MS analysis, mixtures were diluted with buffer A (0.1% formic acid in water) and spiked with the 6 standard peptides P1-P6^24 for test mixture and the set of 11 model peptides (described elsewhere^23) for a model mixture. All dilutions were performed to provide an injection of ˜100 fmole of each component into the nanoRP-HPLC MS system.
Chromatography. All chromatographic experiments were conducted at a controlled temperature of 22-23° C. For isocratic measurement of the slope values, a micro-Agilent 1100 Series system (Agilent Technologies, Wilmington, Del.), was used with a 1 mm×100 mm 5 μm Luna C18(2) (Phenomenex, Torrance, Calif.) column and a UV detector operated at 214 nm. Both eluents A (water) and B (acetonitrile) contained 0.1% formic acid as ion-pairing modifier. Stock solutions of the 11 standard peptides (˜1 mg/ml) were prepared by dissolving each peptide in 1 ml of 0.1% FA in water or a 20% acetonitrile solution. Ten microliters of sample was injected. Individual peptides were diluted to provide ˜0.5-1 μg injection of each component using a 10 μl loop. The dead volume of the column and connecting tubings was determined by injecting a non-retained compound (water) and measuring the elution time of the negative peak at a 150 μL/min flow rate. Retention factors for isocratic elution were calculated using the formula: k=(tR−t0)/t0c; where tR is the retention time, t0 is the system (column and tubings) dead time, and t0c is the column dead time. Additional details of measuring S-values via constructing log k vs. φ plots are provided elsewhere.^24 The nano-LC MS/MS experiments were conducted using splitless Tempo LC system (Eksigent, Dublin, Calif.) with 20 μL sample injection via a 300 μm×5 mm PepMap100 (Dionex, Sunnyvale, Calif.) trap-column and a 100 μm×200 mm analytical column packed with 5 μm Luna C18(2) (Phenomenex, Torrance, Calif.). Tryptic digests of the mixtures were spiked with calibrating peptides (see Table 1) as described above, injected on the trap-column using buffer A as a carrier and separated using 0.1875, 0.375 and 0.75 percent acetonitrile per minute linear gradients starting from 0.5% acetonitrile at 500 nL/min flow rate. The composition of both eluents A and B was identical to one described above for normal-flow system. Gradient programs consisted of a 0.5-40% linear increase of buffer B in 213.2, 106.6 and 53.3 minutes, respectively. After each run the gradient columns were washed with 80% B for 3 minutes and equilibrated with the starting A:B ratio for 18 minutes.
Mass spectrometry. A QStar Elite mass spectrometer (Applied Biosystems, Foster City, Calif.) equipped with a MicrolonSpray II source was used in standard MS/MS information dependent acquisition (IDA) mode for LC-ESI analyses. Protein identification was performed using Protein Pilot 3.0 (Applied Biosystems, Foster City, Calif.) with a restricted database containing target protein sequences and the sequences of standard peptides. Retention times of identified species (peak maxima) were assigned manually.
These two ways of measurement have been combined to provide a highly accurate and fast way of determining S for an extensive sets of peptides (see FIG. 3). First, precise isocratic measurement of S is performed in normal flow conditions with UV detection for a set of synthetic “S-calibrating” peptides. […]
Turning to IQALLDK, the “Slope (experimental)” value worked out at 26.395. The same measure, in the same setting: the figure for LQDTLVR is 29.045; for IRPYFPEQ it is 28.791; for DNPQTHYYAVAVVK it is 34.815. Take GYLAVAVVK: the “Slope (experimental)” value was 27.811.

On to LAGGSASSADAAFR, for which the “Slope (experimental)” value turned out to be 34.509. With VVQLEANCQEPCQDTVK, the “Slope (experimental)” value was determined as 39.579. The same measure, in the same setting: under KPVTEAQSCHLAVAPNHAVVSR stands 49.479; under ANEGLTWNSLK, 27.455. With VGDANPALQK, the “Slope (experimental)” value was 38.388.

Turning to IQALLDKYNEEKPKN, the “Slope (experimental)” value came to 40.038. Still for that read-out and setting: under LLHAAHFR stands 39.794.

For IQALLDKYNEEKPK, the “Slope (experimental)” value stood at 40.311. For SNLQLLR, the “Slope (experimental)” value came to 24.614. The same measure, in the same setting: the figure for WYSMK is 25.257; for KKEEAPSLRPVPPPISGGGYR it is 44.873. Same read-out and setting: under NIVELMR stands 24.282. On to GSNFQLDQLQGR, for which the “Slope (experimental)” value is recorded as 30.314. Regarding LFAYPDTHR, the “Slope (experimental)” value is given as 31.897. Take ETTVFENLPEK: the “Slope (experimental)” value was 29.323. Same read-out and setting: under LAGGGSASSSAHAAAFR stands 44.118. Same read-out and setting: under EKYYGYTGAFR stands 34.957. The same measure, in the same setting: the figure for LNELR is 32.443. Consider LLGGSLSSLHAAFR, for which the “Slope (experimental)” value is listed as 34.021. Regarding LLVLAHFR, the “Slope (experimental)” value was found to be 28.115. Consider AIQISYNPDQPSKPNNIESATK, for which the “Slope (experimental)” value is recorded as 42.444.

ECCHGDLLECADDRADLAK: the “Slope (experimental)” value came out at 40.256. Consider LASAAHFR, for which the “Slope (experimental)” value is on record as 38.571.

Consider WYSMKK, for which the “Slope (experimental)” value is recorded as 33.268. Take IHLISTQSTIPYVLR: the “Slope (experimental)” value worked out at 35.386. On the same count and under the same terms, under LLLLLDFR stands 22.983; under DKVVQLEANCQEPCQDTVK, 42.675; under QFVSSSTTVNR, 37.462. The same measure, in the same setting: the figure for LLLGGDFR is 22.643; for YLTTLK it is 27.604; for LLSLLDFR it is 24.464. TSSSTFQYITLLK: the “Slope (experimental)” value was found to be 29.703. The same measure, in the same setting: the figure for LLGSLSLDAFR is 28.402; for LVTDLTK it is 28.077.

On to VFEHIGK, for which the “Slope (experimental)” value is recorded as 34.229. On the same count and under the same terms, under HLVDEPQNLIK stands 35.894; under LAGGSASSAHAAFR, 42.588; under VDLEDYK, 28.987. For ENFEVLCK, the “Slope (experimental)” value came to 27.436. As for FLQEIYNSNSQK, the “Slope (experimental)” value is on record as 30.666. In the case of FKDLGEEHFK, the “Slope (experimental)” value stood at 38.336.

For TFYLK, the “Slope (experimental)” value is recorded as 22.874. On the same count and under the same terms, the figure for NLNREDFR is 36.957; for LRDSLFNYQK it is 31.66. The same measure, in the same setting: under “FCLFK [tryptic peptide detected in the model peptide mixture]” stands 21.68; under KVIEQVQR, 43.582. Turning to KVPQVSTPTLVEVSR, the “Slope (experimental)” value came to 37.64.

With SQLQEAPLEWK, the “Slope (experimental)” value is recorded as 28.576.

With ENVLR, the “Slope (experimental)” value was found to be 31.531. Same read-out and setting: the figure for LAVAAHFR is 34.392; for LLGGSLSSLDAAFR it is 30.604. With WCAIGHQER, the “Slope (experimental)” value is listed as 35.992. Same read-out and setting: under IEILR stands 24.216; under VYCDMK, 35.652; under TPIAVR, 33.313. The same measure, in the same setting: under KPVTDAENCHLAR stands 48.023. For the substance NLSVEDAAR, the “Slope (experimental)” value is reported as 32.289.

As for WDPYK, the “Slope (experimental)” value amounted to 26.36. Still for that read-out and setting: the figure for YLYEIAR is 27.362. As to ILESGPFVSCVK, the “Slope (experimental)” value turned out to be 29.323. QEPERNECFLSHKDDSPDLPK: the “Slope (experimental)” value came out at 45.147. Turning to LLGGGSLSSSLDAAAFR, the “Slope (experimental)” value was 32.333.

As for ALEHKVDLEDYK, the “Slope (experimental)” value is given as 39.365. On the same count and under the same terms, under LCVLHEK stands 34.16.

As for LLGSLSLHAFR, the “Slope (experimental)” value stood at 31.94.

The same series, now with this note: experimental S, LC-MS runs of model peptide mixture, formic acid.
For DDPHACYSTVFDK, the “Slope (experimental)” value is reported as 32.575. For the substance GACLLPK, the “Slope (experimental)” value is on record as 25.811. For MVLETFGGDGHAR, the “Slope (experimental)” value is 31.001. The same measure, in the same setting: the figure for “DSALGFLR [tryptic peptide detected in the model peptide mixture]” is 21.784; for RLDGSLDFK it is 29.845; for GNLDDFFHR it is 26.957. In the case of EDGSDPPSGDFLTEGGGVR, the “Slope (experimental)” value came out at 30.812.

In the case of VHKECCHGDLLECADDRADLAK, the “Slope (experimental)” value amounted to 44.599. Still for that read-out and setting: under NYELLCGDNTRK stands 31.767; under QGFGNIATNAEGK, 31.595; under CGLVPVLAENR, 26.128. With QGFGNIATNAEGKK, the “Slope (experimental)” value is given as 37.184. On to ECVPNSNER, for which the “Slope (experimental)” value is given as 44.66. The same measure, in the same setting: under DGPLTGTYR stands 28.947. Same read-out and setting: under DKPDNFQLFQSPHGK stands 32.597; under DSADGFLK, 22.49; under “FYTEDGNVVOLVGNNTPIFFIR (FYTEDGNWDLVGNNTPIFFIR)”, 31.467. DQLVDMK: the “Slope (experimental)” value was determined as 25.899.

For the substance ELLIDNEK, the “Slope (experimental)” value stood at 25.018. On the same count and under the same terms, the figure for EEGSVSSGTKQEFHTGK is 48.449; for KYCGVPGEYWLGNDR it is 33.065; for SEDGSDCGDADFDWHHTFPSR it is 37.158. As to DQTVIQNTDGNNNEAWAK, the “Slope (experimental)” value is listed as 34.721. With TCVADESHAGCEK, the “Slope (experimental)” value worked out at 47.601. Still for that read-out and setting: the figure for HQLYIDETVK is 34.369; for DDSPDLPK it is 30.875; for GAGAFGYFEVTHDITR it is 33.608. On the same count and under the same terms, under CGLVPVLAENRK stands 30.745. Regarding “GEGENQCACSSR [moderately sized, hydrophilic tryptic species of the model peptide mixture]”, the “Slope (experimental)” value was 54.005.

For the substance SVDGKEDLIWK, the “Slope (experimental)” value is reported as 30.068. Same read-out and setting: the figure for DLGEEHFK is 32.597; for ETGWPFCSDEDWNTK it is 29.105; for ECCDKPLLEK it is 35.555. Still for that read-out and setting: the figure for GDKVTALYEGFTVQNEANK is 35.1.

Staying with this series, now noted: model peptide mixture (tryptic digest of bovine proteins), 0.75 and 0.1875% acetonitrile per minute gradients, formic acid, S from Δ vs. S curve of S-calibrating peptides.
On to “DSALGFLR [tryptic peptide detected in the model peptide mixture]”, for which the “experimental S-value” stood at 21.8. Regarding “FCLFK [tryptic peptide detected in the model peptide mixture]”, the “experimental S-value” came to 21.7. Same read-out and setting: under “GEGENQCACSSR [moderately sized, hydrophilic tryptic species of the model peptide mixture]” stands 54.1 and 51.7.

Values taken from patent publication US8620595B2, “Methods for determining the retention of peptides in reverse phase chromatography using linear solvent strength theory” (University of Manitoba, priority 2010, dated 2013).
